Results: publication PMC10028186

System: Strep-msIHF (mycobacterial integration host factor) (Mycobacterium smegmatis mc2 155)
Experiment: BLI
Conditions: BLI: PBS with 50 mM Tris-HCl pH 7.5, 150 mM NaCl, 0.1 mg/ml BSA, 0.05% Tween-20, 30 C. EMSA: 50 mM Tris-HCl pH 8, 150 mM NaCl, 10 mM Mg acetate, 0.02% …

With attB fragment the Kd was 250 nM.

Work on oriC fragment yielded a Kd of 270 nM.
